According to patent US20250145697A1 (WASHINGTON UNIVERSITY, published 2025):
Substitutions are numbered along the chain they refer to.

T1: murine ApoE (mouse, UniProt P08226 19-311)
T1 sequence (looked up): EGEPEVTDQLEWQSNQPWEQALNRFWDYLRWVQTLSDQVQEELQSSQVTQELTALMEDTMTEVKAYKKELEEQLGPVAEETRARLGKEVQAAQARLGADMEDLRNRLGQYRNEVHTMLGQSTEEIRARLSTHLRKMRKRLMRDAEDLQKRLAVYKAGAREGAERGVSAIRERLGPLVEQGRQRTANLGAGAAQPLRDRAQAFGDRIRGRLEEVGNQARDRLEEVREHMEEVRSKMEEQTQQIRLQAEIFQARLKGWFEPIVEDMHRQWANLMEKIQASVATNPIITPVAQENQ

T2: ApoE4 amino acids 1-210, expressed on yeast (human, UniProt P02649 19-228)
T2 construct: with myc tag, on yeast cells; range counts on the mature protein; also called N terminal domain; not shown: myc tag and yeast surface-display partner
T2 chain: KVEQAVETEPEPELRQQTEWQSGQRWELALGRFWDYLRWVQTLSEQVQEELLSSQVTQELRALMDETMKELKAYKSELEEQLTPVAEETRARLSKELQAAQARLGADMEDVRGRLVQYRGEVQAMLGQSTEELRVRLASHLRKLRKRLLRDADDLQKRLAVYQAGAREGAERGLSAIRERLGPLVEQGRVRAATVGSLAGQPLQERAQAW

T3: ApoE4 amino acids 1-164, expressed on yeast (human, UniProt P02649 19-182)
T3 construct: with myc tag, on yeast cells; range counts on the mature protein; also called up to helix 4; not shown: myc tag and yeast surface-display partner
T3 chain: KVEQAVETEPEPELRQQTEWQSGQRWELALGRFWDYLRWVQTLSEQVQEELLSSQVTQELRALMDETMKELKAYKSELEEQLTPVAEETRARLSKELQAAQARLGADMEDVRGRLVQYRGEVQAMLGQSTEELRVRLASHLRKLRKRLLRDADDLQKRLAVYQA

T4: ApoE4 amino acids 54-164, expressed on yeast (human, UniProt P02649 72-182)
T4 construct: with myc tag, on yeast cells; expression in yeast printed as Low; range counts on the mature protein; also called helix2 + 3 + 4
T4 chain: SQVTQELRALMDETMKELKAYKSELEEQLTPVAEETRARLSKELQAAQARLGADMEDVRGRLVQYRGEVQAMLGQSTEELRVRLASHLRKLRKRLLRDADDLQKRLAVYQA

T5: ApoE4 amino acids 24-164, expressed on yeast (human, UniProt P02649 42-182)
T5 construct: with myc tag, on yeast cells; range counts on the mature protein; also called helix1 + 2 + 3 + 4
T5 chain: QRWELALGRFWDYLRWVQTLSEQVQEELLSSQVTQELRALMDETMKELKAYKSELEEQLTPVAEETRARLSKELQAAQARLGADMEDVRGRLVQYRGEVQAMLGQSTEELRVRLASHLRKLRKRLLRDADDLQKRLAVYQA

B1: HJ159 (antibody, V domains shown)
VH: QVQLQQSGPDLVKPGASVKISCKASGYTFIDYYINWAKQRPGQGLEWIGWIFPGSGSTYYNEKFKGKATLTVDKSSSTAYMFLSSLTSEDSAVFFCARYYGSSPFAYWGQGTLVTVSA
VL: DVLMTQTPLSLPVSLGDQASISCRSSQNIVYSNGNTYLEWYLQKPGQSPKLLIYKVSNRFSGVPDRFSGSGSGTYFTLKISRVEAEDLGIYYCFQGSHVPYTFGGGTKLEIKR
notes: murine monoclonal antibody from hybridoma
B2: HJ1513 (antibody, V domains shown)
VH: QIQLQQSGPELVKPGASVKISCKASGYTFTDYYINWVRQRPGQGLEWIGWIYPESFNTYYNEKFKGKATLTVDTSSNTAYMQLSSLTSEDSAVYFCARYYVSSPFAYWGQGTLVTVSA
VL: B1 VL with V30I, Y31H, Y41F, Y75D, I90V
notes: as for B1
B3: HJ1518 (antibody, V domains shown)
VH: B1 VH with D10E, I30S, A37V, T58S, S77R, F82L, F94Y, A118T
VL: B1 VL with T7S, N28S, Y31H, S32R, Y75D, I90V, K112R
notes: as for B1
B4: HJ152 (antibody, V domains shown)
VH: EVKLEESGGGLVQPGGSMKLSCAASGFSFSDAWMDWVRQSPEKGLEWVAEIRNKADNHATFYAESVKGRFTISRDDSKSSVYLQMNSLRAEDSGIYYCLLWDYWGQGTTLTVSS
VL: DIVMSQSPSSLAVSAGEKVTMSCKSSQSLLNSRTRKHFLAWYQQKPGQSPKVLIYWASSRESGVPDRFTGSGSGTDFTLTISSVQAEDLAVYYCKQSCNLPWTFGGGTKLEIKR
notes: murine monoclonal antibody from hybridoma; also called HJ152B (biotinylated)
B5: HJ1514 (antibody, V domains shown)
VH: B4 VH with K3N, S28T, F61Y, D75N, A90T, S93T, L99V
VL: B4 VL with S22T, H37N, A40T, Q43R, V52P, T69A, C98Y
notes: as for B1
B6: HJ158 (antibody, V domains shown)
VH: EVQLMESGGDLVKPGGSLELSCTVSGFTFNNYAMSWIRQTPEKRLEWVATISDGGTNTYFPDNVKGRFTISRDNAKSNLYLQMSHLQSEDTAMYYCAREGRGTWFAYWGQGTLVTVSA
VL: DVVMTQTPLSLPVSLGDQASISCRSSQSLVHINGNTYLHWSLQKPGQSPKLLIYKVSNRFSGVPDRFSGSGSGTDFTLKISRVEAEDLGIYFCSQNTHLPLTFGAGTKLELKR
notes: as for B1
B7: HJ1531 (antibody, V domains shown)
VH: EVQFVESGGGLVQPKGSLKLSCAASGFSFNIYAMNWVRQAPGKGLEWVARIRSKSNDYATFYADSVKDRFTISRDDSESMLYLQMNNLKIEDTAMYYCVSPYDGALAYWGQGTSVTVSS
VL: DIQMNQSPSSLFASLGDTITITCHASQNINVWLSWYQQKPGNIPKLLIYKASNLHTGVSSRFSGSGSGTDFTLTINNLQPEDIATYYCQQGQSYPLTFGAGTKLELKR
notes: as for B1
B8: HJ1536 (antibody, V domains shown)
VH: EVQFVESGGGLVQPKGSLKLSCEVSGFSFNTYAMNWVRQAPGKGLEWVARIRNKTNNYATFYADSVKDRFTISRDDSKNTLYLQMNNLKAEDTAMYFCASPYDGSFAYWGQGTLVTVSA
VL: B7 VL with F12S, V31I, S59P, D70G, N76S, N77S, Q92H, A100G, L106I
notes: as for B1

Molecular target: T6, recombinant alipidated human ApoE4 (human, UniProt P02649 19-317)
T6 construct: mature; full length recombinant protein made in E. coli or bought; biotinylated for SPR; position 112 is counted on the mature protein, not on the precursor entry; also called recApoE; non-lipidated ApoE4
Assay: SPR (Biacore T200), biotinylated ApoE4 captured on anti-biotin mAb chip, antibody injected, 1:1 fit
Experimental: The affinity of several anti-ApoE antibodies for ApoE4 was determined by surface plasmon resonance using a BIAcore T200. Anti-biotin monoclonal mouse antibody was immobilized on a Biacore Series S CM5 sensor chip. Biotinylated recombinant alipidated ApoE4 was then captured on to the chip. Serial dilutions of each antibody were injected at a flow rate of 30 μl/min. Each sample was analyzed, for example, with 3-minute association and 10-minute dissociation. After each injection the chip was regenerated using 3 M MgCl₂ or another appropriate buffer. Binding response was corrected by subtracting the response units (RUs) from a flow cell capturing an irrelevant IgG at similar density. A 1:1 Languir model of simultaneous fitting of Kₒₙ and Koff was used for kinetics analysis. Recombinant alipidated ApoE4 was either expressed in soluble form in E. coli and then purified, or purchased from a commercial supplier.

Kd | koff | kon | Binder
391 nM | 0.0074 s⁻¹ | 18900 M⁻¹ s⁻¹ | B1
135 nM | 0.000858 s⁻¹ | 6360 M⁻¹ s⁻¹ | B2
206 nM | 0.00946 s⁻¹ | 45900 M⁻¹ s⁻¹ | B3
249 nM | 0.00116 s⁻¹ | 4660 M⁻¹ s⁻¹ | B4
< 0.781 nM | < 1e-05 s⁻¹ | 12800 M⁻¹ s⁻¹ | B5

Molecular target: T1, murine ApoE
Assay: Western blot of mouse brain lysates
From the text: Brain lysates from apoE KO mice or mice expressing human apoE3, human apoE4 or murine apoE were immunoblotted with HJ151, HJ152, HJ153, and HJ154. A commercial apoE antibody GA-50 was used as a positive control.

binding result | Binder
no binding | B4

Molecular target: T2, ApoE4 amino acids 1-210, expressed on …
Assay: yeast display of myc-tagged ApoE4 fragment, antibody staining
Experimental: (§1) Epitope binding of various anti-ApoE antibodies was evaluated multiple ways. Different sequences of human ApoE were expressed on the surface of yeast by yeast display using different plasmids. Different anti-ApoE antibodies were then assessed to determine binding to the different ApoE sequences by immunofluorescence of the yeast cell surface (Table 4). Because none of the anti-ApoE antibodies tested here recognize murine ApoE, the epitope was further narrowed down by comparison of the murine and human ApoE sequences as shown in Tables 4 and 5. DNA constructs containing different regions of ApoE4 with myc tag were transformed into yeast cells. Yeast cells were incubated with HJ15x to detect binding or anti-myc antibody to detect expression.

binding result | Binder
binds | B1
binds | B2
binds | B3
binds | B4
binds | B5

Molecular target: T3, ApoE4 amino acids 1-164, expressed on …
Assay: as above
Experimental: as §1

binding result | Binder
binds | B1
binds | B2
binds | B3
binds | B4
binds | B5

Molecular target: T4, ApoE4 amino acids 54-164, expressed on …
Assay: as above
Experimental: as §1

binding result | Binder
binds | B1
binds | B2
binds | B3
binds | B4
binds | B5

Molecular target: T5, ApoE4 amino acids 24-164, expressed on …
Assay: as above
Experimental: as §1

binding result | Binder
binds | B1
binds | B2
binds | B3
binds | B4
binds | B5

Molecular target: T6, recombinant alipidated human ApoE4
Assay: direct ELISA on coated recombinant alipidated ApoE (0.5 ug/ml)
Experimental: (§2) ELISA dose response curves were generated for several anti-ApoE antibodies. Briefly, plates were coated overnight with full length recombinant alipidated ApoE2, ApoE3, or ApoE4 (0.5 μg/ml). The following days, plates were washed, blocked and then incubated with an anti-ApoE antibody. A goat, anti-mouse IgG-HRP antibody was used for secondary detection. Recombinant alipidated ApoE was either expressed solubly in E. coli and then purified, or purchased from a commercial supplier.
Target sequence in this assay (P02649 19-317 C130R): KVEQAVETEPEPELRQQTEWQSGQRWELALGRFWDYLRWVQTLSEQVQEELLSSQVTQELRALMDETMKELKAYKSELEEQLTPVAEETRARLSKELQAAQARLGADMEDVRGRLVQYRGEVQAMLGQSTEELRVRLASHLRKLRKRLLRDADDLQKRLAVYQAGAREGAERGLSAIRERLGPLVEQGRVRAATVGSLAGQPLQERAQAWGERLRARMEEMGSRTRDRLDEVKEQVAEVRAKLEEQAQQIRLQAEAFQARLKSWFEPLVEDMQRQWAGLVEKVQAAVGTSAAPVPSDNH

EC50 | Binder
0.32 nM | B1
0.46 nM | B2
0.06 nM | B3
0.35 nM | B4
0.04 nM | B5
0.06 nM | B6
0.04 nM | B7
0.05 nM | B8

Molecular target: T7, recombinant alipidated human ApoE3 (human, UniProt P02649 19-317)
T7 construct: mature; full length recombinant protein made in E. coli or bought
T7 sequence (P02649 19-317): as the sequence (P02649 19-317 C130R) above, with R112C counted along it
Assay: as above
Experimental: as §2

EC50 | Binder
1.9 nM | B1
1.26 nM | B2
0.258 nM | B3
0.13 nM | B4
0.23 nM | B5
0.09 nM | B6
0.05 nM | B7
0.1 nM | B8

Molecular target: T8, recombinant alipidated human ApoE2 (human, UniProt P02649 19-317)
T8 construct: mature; full length recombinant protein made in E. coli or bought
Assay: as above
Experimental: as §2

EC50 | Binder
~100 nM | B2
~100 nM | B5
0.07 nM | B6
0.05 nM | B7
0.09 nM | B8
